In the supplement of paper PMC10567573:
± gives the standard deviation.

Test: protein stability index of a GFP-peptide fusion (GPS, HEK-293T) (PSI 1-6); higher = more stable
[1] = treatment: DMSO, c terminus: a fixed tail appended
[2] = treatment: MLN4924 1 uM, 8 h, c terminus: a fixed tail appended
[3] = treatment: DMSO, c terminus: native
[4] = treatment: MLN4924 1 uM, 8 h, c terminus: native
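Note: 24-mer peptide tiles fused after GFP, lentivirally expressed, FACS-sorted into six equal bins by GFP/DsRed ratio, decoded by Illumina sequencing, PSI is the read-weighted mean bin number.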

Sequence | protein stability index [1] | protein stability index [2] | protein stability index [3] | protein stability index [4]
NLGGGDPKGWRQLAQEAEAWLNYP [OAS1] | 3.22 ± 0.26 | 3.37 ± 0.26 | – | –
LILFAWGTLLFYIGGHLVRDNDHP [FUT8] | 2.95 ± 0.19 | 3.36 ± 0.47 | – | –
AADGETNGSCENSDASSHANAAKH [EHMT1] | 5.51 ± 0.12 | 5.35 ± 0.14 | – | –
QSERQRHESQQLATETQALAQRTQ [TEKT4] | 5.43 ± 0.21 | 5.32 ± 0.16 | – | –
SFVKKNVLVTGGFFGGFLLGMAS [FUNDC2] | – | – | 3.64 ± 0.15 | 2.96 ± 0.41
LCEPDPVHFSEAIEKFIREPSLKA [ALG2] | 3.81 ± 0.19 | 3.91 ± 0.19 | – | –
APGEEEEEEEEATNTHPPASLPSQ [CHGA] | 5.57 ± 0.34 | 5.71 ± 0.19 | – | –
MLNEPLVREIVKECSNIPLSQPQQ [GAN] | 3.85 ± 0.2 | 3.95 ± 0.077 | – | –
FTLASSSDTRVGAPATGSGTPGPF [CHIT1] | 3.73 ± 0.19 | 3.84 ± 0.39 | – | –
AFQLLRRFVQAEGRRATLQRLVEA [TRADD] | 2.19 ± 0.15 | 2.26 ± 0.38 | – | –
EYLENQVIKDKDDSVDAQNICHVW [RNF180] | 3.42 ± 0.26 | 3.57 ± 0.27 | – | –
RMTGGRPPLPPPDDPATLGPHLGL [DYRK1B] | 4.2 ± 0.2 | 4.26 ± 0.18 | – | –
ESFRDLQLRLLQAPLQADLTEQVW [SCARA5] | 2.59 ± 0.089 | 3.1 ± 0.4 | – | –
IGMHREMQVNPISKRMGPMTVVRM [RHOBTB1] | 2.39 ± 0.44 | 2.39 ± 0.32 | – | –
LFNILAKFNGITEKEYKTYKENFL [USP39] | 2.16 ± 0.43 | 2.5 ± 0.25 | – | –
SRSTSFRGGMGSGGLATGIAGGLA [KRT18] | 3.3 ± 0.066 | 3.33 ± 0.37 | – | –
PCATVSVFPGARLLTIGDANGEIQ [CARM1] | 3.31 ± 0.38 | 3.28 ± 0.16 | – | –
DIKAAFAPFGRISDARVVKDMATG [TIA1] | 3.31 ± 0.16 | 3.18 ± 0.4 | – | –
PPPPIDNGDITSFLLSVYAPGSSV [CFHR2] | 2.66 ± 0.33 | 2.65 ± 0.37 | – | –
SMTTPRCYVGATVLRGRLYAIAGY [KLHL12] | 2.14 ± 0.36 | 2.51 ± 0.58 | – | –
YSKFHGLEMCVDARTFGNEARFIR [KMT2E] | 2.21 ± 0.17 | 2.25 ± 0.22 | – | –
SEGLVGALMHVMQKRSRAIHSSDE [WAS] | 3.67 ± 0.3 | 3.79 ± 0.15 | – | –

Sequence | protein stability index [1] | protein stability index [2] | protein stability index [3] | protein stability index [4]
PQERTLTLVDTGIGMTKADLINNL [HSP90AB1] | 3.49 ± 0.33 | 3.67 ± 0.26 | – | –
GTNTVSFYTLSPNSHFSLNVKTLK [PCDHGC5] | 2.4 ± 0.39 | 2.51 ± 0.21 | – | –
AAVVTSPPPTTAPHKERYFDRVDE [ADD1] | 4.77 ± 0.44 | 4.73 ± 0.34 | – | –
IYDLNIPAFVKFAYVAEREDELSL [NCK2] | 2.25 ± 0.39 | 2.51 ± 0.2 | – | –
MMLFNDGTFQVNFYHDHTKIIICS [PLK2] | 2.79 ± 0.83 | 2.88 ± 0.86 | – | –
AGNDDSFGSLPSPKELSSFSFSMK [DLC1] | 3.75 ± 0.2 | 3.87 ± 0.21 | – | –
FKKGKNPTGLLALQQIADFMTTNV [ADD1] | 2 ± 0.23 | 2.61 ± 0.34 | – | –
FQRRNMIEPRERAKFKRKYKVKLV [NOP53] | 2.87 ± 0.46 | 3.39 ± 0.58 | – | –
RASFWLALVGCVISDNPERYSTNL [EDNRA] | 2.85 ± 0.68 | 2.97 ± 0.62 | – | –
FRSRSRLTHLSLSRRASESSLSSE [CDC25B] | 3.84 ± 0.22 | 3.99 ± 0.099 | – | –
LPIVAIENILSFMSYDEISQLRLV [FBXO28] | 2.94 ± 0.5 | 2.81 ± 0.43 | – | –
SKKLRAILPKQSRKSMLDAGPDSW [LCOR] | 2.71 ± 0.06 | 3.03 ± 0.44 | – | –
VDLDPTDGKLFPSDGFRDCKKGDP [ELF3] | 5.31 ± 0.1 | 5.2 ± 0.25 | – | –
DLSSLRAKYPHDVVNHLSCDEARN [SPACA9] | 4.47 ± 0.21 | 4.33 ± 0.47 | – | –
FAHSSNLLRHQRIHTGERPYKCPE [ZNF263] | 2.99 ± 0.28 | 3.35 ± 0.36 | – | –
SAGEQKTERMDKVGDALEEVLSKA [GADD45A] | 5.58 ± 0.18 | 5.41 ± 0.26 | – | –
VYLHGDDHQDSDEFCRNTLCAPEV [FAF2] | 4.13 ± 0.22 | 4.23 ± 0.15 | – | –
HVPELEMLGRLGYLNHVRAASPQD [MNAT1] | 3.44 ± 0.2 | 3.45 ± 0.45 | – | –
KCDSLKEECIPEHMVRESKIMEAE [FAN1] | 5.2 ± 0.39 | 5 ± 0.22 | – | –
LQDVRVNQSRCEMKTFVSPEAISP [TRIM15] | 4.01 ± 0.17 | 4.09 ± 0.29 | – | –
YKRSMDPGYPKMIAHDFPGIGHKV [MMP1] | 2.55 ± 0.21 | 2.77 ± 0.094 | – | –
AVIQHRPSRQYATLDVYNPFETRE [SCAMP3] | 3.42 ± 0.23 | 3.39 ± 0.27 | – | –

Sequence | protein stability index [1] | protein stability index [2] | protein stability index [3] | protein stability index [4]
YPSVILRDPLQTDTLQNDYFAIKQ [ETS1] | 3.1 ± 0.41 | 3.3 ± 0.21 | – | –
EMDMVVFRPEMKKHSWCLKRKNPP [N4BP2L1] | 3.25 ± 0.31 | 3.25 ± 0.18 | – | –
ADLSSGSSGEDDDFKSCPQGPQGR [PWWP2B] | 5.36 ± 0.15 | 5.52 ± 0.13 | – | –
ITWIAGAVTKDFKLTDKHETVVSY [ACSBG2] | 2.3 ± 0.25 | 2.03 ± 0.33 | – | –
TPHMLLDLSDLLQVDSLRPASFPT [BRF1] | 2.28 ± 0.2 | 2.43 ± 0.2 | – | –
EWVISTGHDKCVSWMCTRSGNMLG [WDFY1] | 2.09 ± 0.37 | 2.01 ± 0.41 | – | –
IYLINQKWFGRKRTLSAFLCLGGL [SLC22A15] | 3.15 ± 0.26 | 3.01 ± 0.56 | – | –
IRVRGQRASRLQAPVLVAAPHSTF [LPCAT4] | 2.6 ± 0.17 | 2.73 ± 0.22 | – | –
DYSQLNESTTKESSEASQLEDAAG [FBXO34] | 5.47 ± 0.28 | 5.35 ± 0.46 | – | –
LLVLCEDHRGRMVKHQCCPGCGYF [EHMT1] | 2.36 ± 0.087 | 2.27 ± 0.36 | – | –
VVAYLALAALSATISFRIYKSVLQ [RTN1] | 2.7 ± 0.66 | 2.87 ± 0.43 | – | –
VMFKIGDLGHVTRISSPQVEEGDS [WEE1] | 3.44 ± 0.23 | 3.45 ± 0.37 | – | –
PQHQAGSDSLLTGMAFFKMREMFF [CNOT7] | 2.13 ± 0.16 | 2.15 ± 0.099 | – | –
EVCCTSIVYATEKKQTKVEFPEAR [KCTD13] | 3.88 ± 0.34 | 3.9 ± 0.28 | – | –
LIQDSPDSSTSPKGKQPTSAENSV [NANOGP8] | 5.23 ± 0.11 | 5.17 ± 0.17 | – | –
GTGAVVTSLFMTPLDVVKVRLQSQ [SLC25A39] | 2.18 ± 0.11 | 2.06 ± 0.52 | – | –
PRRRRPGCYAYRQNPEAIAAAAMY [MYORG] | 2.78 ± 0.19 | 2.9 ± 0.34 | – | –
SEEKGHPQEESEESNVSMASLGEK [CHGB] | 5.48 ± 0.21 | 5.61 ± 0.19 | – | –
VVKKIALREIRMLKQLKHPNLVNL [CDKL4] | 2.2 ± 0.76 | 2.63 ± 0.11 | – | –
SALATQYMHCVNHAKQSMLEKGG [CHCHD3] | – | – | 2.81 ± 0.55 | 3.02 ± 0.34
DGKRCRRKDVCKSTHHGCEHICVN [MATN2] | 3.65 ± 0.3 | 3.92 ± 0.21 | – | –
